Consider 2 molecules from article PMC10325919, “A potential histone-chaperone activity for the MIER1 histone deacetylase complex” (Nucleic Acids Research, 2023).

Starred links: 1 amine or outer side, 2 acyl side, 3 side chain; linkers in the order of their positions; H or OH if unused. Non-standard residues stand in square brackets, D forms with d. No end group written: not given here. Lys(Me3) = C[N+](C)(C)CCCC[C@H](N)C(=O)O; Ethylenediamine = C(CN[*:2])N[*:1]; 5‑FAM = 5-carboxyfluorescein; GABA = NCCCC(=O)O

Test [1] deals with T1, E. coli expressed BAHD1(aa:588–780) (UniProt Q8TBE0 588-780).
T1 construct: BAHD1, BAH domain, aa 588-780; also called BAH domain of BAHD1; source: E. coli expressed
T1 sequence (looked up): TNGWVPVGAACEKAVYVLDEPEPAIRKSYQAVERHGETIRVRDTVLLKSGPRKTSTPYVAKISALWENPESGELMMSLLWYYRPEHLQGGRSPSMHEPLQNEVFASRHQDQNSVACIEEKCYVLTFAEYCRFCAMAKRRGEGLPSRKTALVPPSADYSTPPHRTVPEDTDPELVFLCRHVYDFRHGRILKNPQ
In words: fluorescence polarisation; 5 nM 5-FAM labelled histone peptide, BAHD1(aa:588–780) 0–142 μM, 25 mM Tris/Cl pH 7.5, 50 mM NaCl, 15 min at 37°C; one-site binding model. Particulars: both partners purified. Background: Polarisation of emitted light reports the rotation of a fluorescent probe.

Test [2] has as its target Full length HDAC1(aa:1–482) (UniProt Q13547 1-482). In words: co-IP + SEC; FLAG-tagged bait transfected in HEK293F (with untagged partners where stated); lysate on anti-FLAG M2 resin, washed in 50 mM Tris/HCl pH 7.5, 50 mM potassium acetate, eluted by TEV protease, then Superdex S200 gel filtration; fractions on SDS-PAGE, bands identified by mass spectrometry. Particulars: partners not purified.

Full length HDAC1(aa:1–482), sequence (Q13547 whole entry): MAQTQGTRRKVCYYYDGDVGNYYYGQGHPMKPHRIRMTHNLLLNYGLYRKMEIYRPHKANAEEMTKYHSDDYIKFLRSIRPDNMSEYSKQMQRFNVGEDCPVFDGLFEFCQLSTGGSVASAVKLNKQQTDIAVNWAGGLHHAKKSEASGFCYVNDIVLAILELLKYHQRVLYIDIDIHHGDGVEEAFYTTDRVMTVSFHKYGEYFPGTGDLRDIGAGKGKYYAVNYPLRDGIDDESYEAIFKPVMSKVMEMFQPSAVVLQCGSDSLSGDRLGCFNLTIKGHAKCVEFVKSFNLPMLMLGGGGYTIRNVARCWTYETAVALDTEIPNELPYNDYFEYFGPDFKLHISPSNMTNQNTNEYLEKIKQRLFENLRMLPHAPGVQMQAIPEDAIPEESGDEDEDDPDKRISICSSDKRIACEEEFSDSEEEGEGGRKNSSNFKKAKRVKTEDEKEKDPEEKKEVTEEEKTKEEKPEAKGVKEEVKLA

B1: H3 16–35 K27me3 peptide (peptide)
peptide: PRKQLATKAAR[Lys(Me3)]SAPATGG-{Ethylenediamine-GABA-5‑FAM}
notes: Histone H3 tail peptide, named H3 16–35; also called H3 histone tail bearing a K27me3 modification; source: synthetic peptide, bought: Cambridge Research Biochemicals
As for B1, in test [1], the binding result is reported as “binds”.

B2: FLAG-tagged MIER1 ELM2-SANT (aa:171–350) (domain or fragment, UniProt Q8N108 171-350, looked up)
chain: DYIPSEDWKKEIMVGSMFQAEIPVGICRYKENEKVYENDDQLLWDPEYLPEDKVIIFLKDASRRTGDEKGVEAIPEGSHIKDNEQALYELVKCNFDTEEALRRLRFNVKAAREELSVWTEEECRNFEQGLKAYGKDFHLIQANKVRTRSVGECVAFYYMWKKSERYDFFAQQTRFGKKKY
notes: The tag holds the protein on the anti-FLAG resin; it is cut off by TEV protease for elution, before gel filtration and SEC-MALS; also called isolated ELM2-SANT domain; source: HEK293F, co-transfected with HDAC1; anti-FLAG resin, TEV, Superdex S200; not shown: 10xHis-3xFLAG, N-terminal, kept
In the case of B2, in test [2], the binding result is “binds”.
